Measured values reported in publication PMC13649712 (2026).
Read-outs that look alike come from different tables or passages of the source.

Assays:
[1] = target: T1, mouse PER1 1013-1291 R1111A (mouse, UniProt O35973 1013-1291, R1111A); test: ITC
[2] = target: T1, mouse PER1 1013-1291 R1111A; test: ITC; remark: listed apart in the source

Kd [1]: 9.8 nM | Kd [2]: 10 nM
B1: mouse CRY1 1-496 (PHR) (domain or fragment)
chain: MGVNAVHWFRKGLRLHDNPALKECIQGADTIRCVYILDPWFAGSSNVGINRWRFLLQCLEDLDANLRKLNSRLFVIRGQPADVFPRLFKEWNITKLSIEYDSEPFGKERDAAIKKLATEAGVEVIVRISHTLYDLDKIIELNGGQPPLTYKRFQTLVSKMEPLEMPADTITSDVIGKCMTPLSDDHDEKYGVPSLEELGFDTDGLSSAVWPGGETEALTRLERHLERKAWVANFERPRMNANSLLASPTGLSPYLRFGCLSCRLFYFKLTDLYKKVKKNSSPPLSLYGQLLWREFFYTAATNNPRFDKMEGNPICVQIPWDKNPEALAKWAEGRTGFPWIDAIMTQLRQEGWIHHLARHAVACFLTRGDLWISWEEGMKVFEELLLDADWSINAGSWMWLSCSSFFQQFFHCYCPVGFGRRTDPNGDYIRRYLPVLRGFPAKYIYDPWNAPEGIQKVAKCLIGVNYPKPMVNHAEASRLNIERMKQIYQQLSRYRG
